Test [1] addresses T1, randomly biotinylated human FIXa (human, UniProt P00740 47-191; P00740 227-461, randomly biotinylated (NHS-d-biotin)). The test is described as follows: BLI (Octet) in-tandem binning on biotinylated FIXa, 330 nM each; competitor (1st antibody): hIgG4 (control). How it is done: (§1) Binning experiments were performed using Octet fortebio systems (HTX, Red384), based on the principle of Bio-Layer Interferometry, and equipped with streptavidin sensors (Pall Life Sciences, Menlo Park, CA), and using 8-channel mode. The binning assays were performed using a modified in-tandem setup. Briefly, (1) 370 nM randomly biotinylated human FIXa (biotinylated using NHS-d-biotin from Sigma H1759 and human FIXa obtained from Haematologic Technologies, Essex Junction, VT) was captured by streptavidin tips (dip and read biosensors Part NO:18-5019, Pall Life Sciences, Menlo Park, CA) for 5 minutes, (2) 330 nM of a first bivalent anti-FIXa antibody was then offered to the streptavidin tips, and incubated for 10 minutes until the biotinylated FIXa were fully saturated and (3) the tips were then offered to an equimolar solution of 330 nM of the first antibody and 330 nM of a second bivalent anti-FIXa antibody for 5 minutes. […] Unspecific binding were evaluated by including an unrelated human IgG4 bivalent antibody as first and second antibody control.

Test [2] has as its target T1, randomly biotinylated human FIXa. The test is described as follows: BLI (Octet) in-tandem binning on biotinylated FIXa, 330 nM each; competitor (1st antibody): mAb01-2434. How it is done: as §1
(In general: BLI is a label-free optical method that tracks binding on a fibre tip over time.)

For test [3] the target is unchanged. The test is described as follows: BLI (Octet) in-tandem binning on biotinylated FIXa, 330 nM each; competitor (1st antibody): 224F3. The procedure: as §1
Test [4] shares this target. The test is described as follows: BLI (Octet) in-tandem binning on biotinylated FIXa, 330 nM each; competitor (1st antibody): mAb01-1767. How it is done:
as §1

Test [5] addresses T2, human plasma-derived Factor IXa (human, UniProt P00740 47-191; P00740 227-461). The test is described as follows: cell-based or functional assay.
The target in test [6] is T2, human plasma-derived Factor IXa. The test is described as follows: ITC, 37 °C, pH 7.4, antibody injected into FIXa. How it is done: (§2) Binding affinities for anti-FIX(a) and anti-FX(a) antibodies were measured by isothermal titration calorimetry […] by using a PEAQ-ITC calorimeter (Malvern, UK). The experiments were conducted at 37° C. and pH 7.4 using 25 mM Tris, 150 mM NaCl, 5 mM CaCl₂ (Tris-buffer). The sample cell (200 μl) contained either FIX, FIXa, or FX (macromolecule) and anti-FIX(a) and anti-FX(a) antibodies (ligand) were injected via a syringe (40 μl). All proteins were extensively dialyzed in Tris-buffer prior to measurements to secure matched buffer conditions. A thermal equilibration step was followed by a 60 s delay and subsequently an initial 0.2 μl injection of antibody, followed by 12-16 injections of 1.5-3 μl of antibody at an interval of 120 s. The stirring speed was maintained at 750 rpm, and the reference power is kept constant at 5-10 μcal/s. The heat associated with each injection of antibody is integrated and plotted against the molar ratio of ligand to macromolecule. The resulting isotherm is fitted to a one-site binding model to obtain the affinity (KD), stoichiometry (n), and enthalpy of interaction (ΔH) using the software provided by the manufacturer. Experiments were performed in at least duplicates.
(In general: In ITC the heat of successive injections is recorded.)

Test [7] deals with T3, human coagulation Factor IX (human, UniProt P00740 47-461).
T3 construct: also called FIX
T3 sequence (P00740 47-461 T194A limits assumed): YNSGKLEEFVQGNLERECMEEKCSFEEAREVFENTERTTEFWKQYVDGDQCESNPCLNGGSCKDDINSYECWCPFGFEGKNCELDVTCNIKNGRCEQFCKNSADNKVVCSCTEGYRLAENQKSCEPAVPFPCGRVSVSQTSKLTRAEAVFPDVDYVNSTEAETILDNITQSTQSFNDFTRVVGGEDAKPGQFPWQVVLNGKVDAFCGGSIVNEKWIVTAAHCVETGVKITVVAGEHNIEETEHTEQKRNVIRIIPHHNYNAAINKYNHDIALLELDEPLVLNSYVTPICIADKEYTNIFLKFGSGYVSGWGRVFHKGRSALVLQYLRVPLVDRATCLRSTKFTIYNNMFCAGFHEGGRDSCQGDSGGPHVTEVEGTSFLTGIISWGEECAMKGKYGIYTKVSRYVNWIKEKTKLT
The test is described as follows: ITC, 37 °C, pH 7.4, antibody injected into FIX. How it is done: as §2

The target of test [8] is T4, human coagulation Factor X (human, UniProt P00742 41-179; P00742 183-488).
T4 construct: also called FX
T4 sequence (P00742 41-179, chain 1 of 2): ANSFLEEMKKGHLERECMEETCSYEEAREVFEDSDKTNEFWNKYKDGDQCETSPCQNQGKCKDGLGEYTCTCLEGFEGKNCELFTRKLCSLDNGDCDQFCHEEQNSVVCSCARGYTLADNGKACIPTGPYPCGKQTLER
T4 sequence (P00742 183-488, chain 2 of 2): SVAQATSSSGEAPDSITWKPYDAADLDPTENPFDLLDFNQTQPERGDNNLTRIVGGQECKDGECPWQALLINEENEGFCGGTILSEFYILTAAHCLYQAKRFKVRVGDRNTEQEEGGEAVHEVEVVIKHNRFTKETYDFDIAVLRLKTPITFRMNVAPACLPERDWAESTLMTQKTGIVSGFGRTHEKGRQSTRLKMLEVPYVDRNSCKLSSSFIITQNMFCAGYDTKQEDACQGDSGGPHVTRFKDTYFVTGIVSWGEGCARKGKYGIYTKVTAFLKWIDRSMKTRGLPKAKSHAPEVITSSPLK
The test is described as follows: ITC, 37 °C, pH 7.4, antibody injected into FX. How it is done: as §2

The results in this text go back to patent US20260193376A1 (Novo Nordisk, published 2026).

Where a chain is given by its changes, count along the chain named.

Usually Kd stands for a measure of binding affinity in units of concentration. A lower Kd goes with higher affinity.

T1 sequence (P00740 47-191, chain 1 of 2): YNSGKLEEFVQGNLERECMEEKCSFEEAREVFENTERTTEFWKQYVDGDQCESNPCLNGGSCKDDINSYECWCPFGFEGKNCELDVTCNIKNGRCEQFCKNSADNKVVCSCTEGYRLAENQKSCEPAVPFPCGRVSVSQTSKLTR
T1 sequence (P00740 227-461, chain 2 of 2): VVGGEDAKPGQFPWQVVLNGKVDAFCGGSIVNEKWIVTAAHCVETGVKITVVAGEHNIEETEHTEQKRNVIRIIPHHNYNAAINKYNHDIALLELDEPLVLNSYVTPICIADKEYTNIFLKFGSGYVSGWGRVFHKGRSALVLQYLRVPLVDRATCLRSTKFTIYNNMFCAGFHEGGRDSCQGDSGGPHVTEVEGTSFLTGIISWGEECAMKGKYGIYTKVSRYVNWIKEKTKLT
T2 sequence (P00740 47-191, chain 1 of 2): as the sequence (P00740 47-191, chain 1 of 2) above
T2 sequence (P00740 227-461, chain 2 of 2): as the sequence (P00740 227-461, chain 2 of 2) above

B1: 224F3 (mAb01-1582) (antibody, V domains shown)
VH: QVQMQQSGAELVKPGASVKLSCKASGYTFTSQDINWVRQRPEQGLEWIGWIFPGDGSTKYNEKLKGKATLTTDKSSSTAFMQLSRLTSEDSAVYFCARSAYYRYDGSYYYAMDYWGQGTSVTVSS
VL: QIVLTQSPAIMSASLGEEITLTCSASSSVSYMLWYQQKSGTSPKLLIYTTSNLASGVPSRFSGTGSGTFYSLTISSVEAEDAADYYCHQWSSYPRTFGGGTKLEIKR
Consider B1, for which the interferometry response value in test [1] amounted to 2.11; in test [2], 1.69; in test [3], 0.11; in test [4] it was 1.6.

B2: bimAb05-0745 (bispecific antibody, V domains shown)
VH 1: EVQLVESGGGLVQPGRSLRLSCAASGFTFHDYAMHWVRQVPGKGLEWVSGISWKGDIGGYVDSVKGRFTISRDNEKNSLYLQMNSLRAEDTALYYCVKSYGSGSFYNAFDSWGQGTLVTVSS
VL 1: DIQMTQSPSTLSASVGDRVTITCRASQSISSWLAWYQQKPGKAPKFLIYKASRLDRGTPSRFSGSGSGTEFSLTISSLQPDDFATYYCLEYSSYIRTFGQGTKVEIK
VH 2: EVQLVQSGAEVKKPGESLRISCKGSGYSFSTSWIVWVRQMPGKGLEWMGMIDPSDSFTSYSPSFQGHVTISADKSISTAYLQWSSLKASDTAMYYCARLHYYNSEEFDVWGQGTLVTVSS
VL 2: EIVLTQSPGTLSLSPGERATLSCRASQSVSSSYLAWYQQKPGQAPRLLIYGQSSRTRGIPDRFSGSGSGTDFTLTISRLEPEDFAVYYCQQFGDSQLFTFGQGTKLEIK
As for B2, the “Maximum stimulation (fold), FXa generation assay with bispecific antibody; maximum at 7980 nM” value in test [5] was 21100 fold.

B3: mAb01-9994 (antibody, V domains shown)
VH: B2 VH 1
VL: B2 VL 1
notes: Bivalent IgG
For B3, the interferometry response value in test [1] worked out at 0.75; in test [2], 0.56; in test [3], 0.4; in test [4], 0.01. Besides, the Kd in test [6] amounted to 1800 nM; in test [7], 2480 nM.

B4: bimAb05-2114 (bispecific antibody, V domains shown)
VH 1: B2 VH 1 with K54R, D62K, E75A
VL 1: B2 VL 1 with R53K, D55E
VH 2: B2 VH 2 with V35S, F57Y, L115M
VL 2: B2 VL 2 with F92Y
For B4, the “Maximum stimulation (fold), FXa generation assay with bispecific antibody; maximum at 7580 nM” value in test [5] came out at 35200 fold.

B5: bimAb05-2115 (bispecific antibody, V domains shown)
VH 1: B2 VH 1
VL 1: B2 VL 1 with F46L, D55E
VH 2: B2 VH 2 with V35S, F57Y, L115M
VL 2: B2 VL 2 with F92Y
In the case of B5, the “Maximum stimulation (fold), FXa generation assay with bispecific antibody; maximum at 7790 nM” value in test [5] was 14900 fold.

B6: bimAb05-3761 (bispecific antibody, V domains shown)
VH 1: B2 VH 1 with R19K, H30D, E75A, M83L, V97A
VL 1: B2 VL 1 with V15A, R18E, F46L, R53K, T58V, S77D
VH 2: B2 VH 2
VL 2: B2 VL 2
B6: in test [5], the “Maximum stimulation (fold), FXa generation assay with bispecific antibody; maximum at 2690 nM” value came out at 16300 fold.

B7: bimAb05-2113 (bispecific antibody, V domains shown)
VH 1: B2 VH 1 with R19K, H30D, E75A, M83L, V97A
VL 1: B2 VL 1 with V15A, R18E, F46L, R53K, T58V, S77D
VH 2: B2 VH 2 with V35S, F57Y, L115M
VL 2: B2 VL 2 with F92Y
Regarding B7, the “Maximum stimulation (fold), FXa generation assay with bispecific antibody; maximum at 7600 nM” value in test [5] is 26300 fold.

B8: bimAb05-3755 (bispecific antibody, V domains shown)
VH 1: B2 VH 1
VL 1: B2 VL 1
VH 2: B2 VH 2 with S30T, N103H
VL 2: B2 VL 2 with Q52A, T56A, D94S, Q96R
Regarding B8, the “Maximum stimulation (fold), FXa generation assay with bispecific antibody; maximum at 156 nM” value in test [5] stood at 7570 fold.

B9: bimAb05-0746 (bispecific antibody, V domains shown)
VH 1: B2 VH 1
VL 1: B2 VL 1 with F46L, D55E
VH 2: B2 VH 2
VL 2: B2 VL 2
Take B9: the “Maximum stimulation (fold), FXa generation assay with bispecific antibody; maximum at 3717 nM” value in test [5] stood at 14600 fold.

B10: bimAb05-2112 (bispecific antibody, V domains shown)
VH 1: B2 VH 1
VL 1: B2 VL 1
VH 2: B2 VH 2 with V35S, F57Y, L115M
VL 2: B2 VL 2 with F92Y
Turning to B10, the “Maximum stimulation (fold), FXa generation assay with bispecific antibody; maximum at 7820 nM” value in test [5] is 30400 fold.

B11: mAb01-9978 (antibody, V domains shown)
VH: B2 VH 1
VL: B2 VL 1 with F46L, D55E
notes: Bivalent IgG
For B11, the interferometry response value turned out to be 0.4 in test [1], 0.34 in test [2], 0.24 in test [3] and 0.01 in test [4]. Moreover, the Kd in test [6] amounted to 3570 nM; in test [7], 5600 nM.

B12: bimAb05-3769 (bispecific antibody, V domains shown)
VH 1: B2 VH 1 with K54R, D62K, E75A
VL 1: B2 VL 1 with R53K, D55E
VH 2: B2 VH 2
VL 2: B2 VL 2
Consider B12, for which, in test [5], the “Maximum stimulation (fold), FXa generation assay with bispecific antibody; maximum at 8170 nM” value came out at 27400 fold.

B13: mAb01-9933 (antibody, V domains shown)
VH: B2 VH 1 with R19K, H30D, E75A, M83L, V97A
VL: B2 VL 1 with V15A, R18E, F46L, R53K, T58V, S77D
notes: Bivalent IgG
Turning to B13, the interferometry response value in test [1] was determined as 0.59; in test [2] it was 0.46; in test [3], 0.34; in test [4] it was 0.02. The Kd was found to be 1300 nM in test [6] and 2390 nM in test [7].

B14: mAb01-9772 (antibody, V domains shown)
VH: B2 VH 2 with V35S, F57Y, L115M
VL: B2 VL 2 with F92Y
notes: Bivalent IgG
B14 showed a Kd in test [8] of 1370 nM.

B15: mAb01-9985 (antibody, V domains shown)
VH: B2 VH 1 with K54R, D62K, E75A
VL: B2 VL 1 with R53K, D55E
notes: Bivalent IgG
For B15, the interferometry response value in test [1] came out at 0.83; in test [2] it was 0.6; in test [3], 0.44; in test [4], 0.02. The Kd in test [6] stood at 1260 nM; in test [7] it was 1920 nM.

B16: mAb01-8913 (antibody, V domains shown)
VH: B2 VH 2
VL: B2 VL 2 with P15A, Q52A, T56A, D94S, Q96R
notes: Bivalent IgG
Consider B16, for which the Kd in test [8] turned out to be 350 nM.
